In the nanobody polyreactivity screen of Harvey et al. (2022):

test: yeast display, Sf9 membrane polyspecificity reagent, FACS + sequencing; frameworks hold sequencing errors
Procedure, shortened: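 In a synthetic yeast display library (Saccharomyces cerevisiae BJ5465), nanobody expression was induced with galactose for 36–48 hours. FACS gates were set low and high (top ~1%) using anti-HA fluorescence for expression and streptavidin fluorescence for binding of the Sf9 membrane reagent. Each polyreactivity label is drawn from the gate of origin.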

Row | Sequence | polyreactivity (PSR sort gate)
1 | QVQLVESGGGLVQAGGSLRLSCAASGFTFYTYAMGWYRHAPGKERELVAAITSSGGSTYYADSVKGRFTISRDNAKNSVYLQMNSLKPEDTAVYYCKAVSYYLGDDYWGQGTQVNVSS | high polyreactivity
2 | QDHLVESGGGLVQAGGSLSLSCAASGIIFYGNAMGLSRQAHGKDRELVAAISWSGSSTYYADSVKGRFTISRDNAKNTVYLQMNSLKPEDNAVYYCNKATSSVRYLKYYYWGQGTQVTVSS | high polyreactivity
3 | QVQHVESGGGLVQAGGSLRLSCAASGRIYRKAMGWYRQAPGKERELVAVITRGGSTNYADSVKGRFTISRDNAKNSVYLQMNSLKPEDTAVYYCAATYSYRFSSFDYWGQGTQVTVSS | high polyreactivity
4 | QVQLVESGGGLVQAGGSLRLSCAASGSIFFTYAMGWYRQAPGKERELVAGISWGGGSTHYADSVKGRFTISRDNAKNTVYLQMNSLKPEDTAVYYCARVWPYPSTEYGYTGRLYDYWGQGTQVTVSS | low polyreactivity
5 | QVQLVESGGGLVQAGGSLRLSCAASGRIFGQYAMAWYRHAPGKERELVAAITQRGGSTYYADSVKGRFTISRDNAKNTVYLQMNSLKPEDTAGYYCNKRYRFTGIRDPFDYWGQGTQVTVSS | low polyreactivity
6 | QVQLVESGGGLVQAGGSLPLTCAASGSIFAWNDMGWYRQAPGKERELVAAIRESGTGTYADSVKGRFTISRDNAKNNVYLQMKSLKPEDTAVYYGVADEIQFFIYRMEYWGQGTQVTVSS | low polyreactivity
7 | QVQLVESGGGLVQAGGSLRLSCAASGSIFVWYVMGWYRQAPGKERELVAAITWSAARTYYADSVKGRFTISRDNAKNTVYLQMNSLKPADTAVYYCAADHVSYQPSSRIFDYWGHGTQVTVSS | low polyreactivity
8 | QVQLVESGGGLVQAGGSLRLSCAASGFIFPRYAMGWYRQAPGKERELVAAISYSGGSTYYADSVKGRFTISRDNAKNTVYLQMNSLKPEDTAVYYCAARLFKDSWMDYWGQGTQVTVSS | high polyreactivity
9 | QVQLVESGGGLDQAGGSLRLSCAASASTFRRYAMGWYRQAPGKERELVAAISRSGGNTYYADSVKGRFTISRDNAKNTVYLQMNSLKPEDTAVYYCAASKLYGSPEHGYWGQGTQVTVSS | high polyreactivity
10 | QVQHVESGGCLVQAGASLRLSCDASGSIFRRNAMGWYRQAPGKERQLVDAITSYGGRTYYADSVKGRFTISRDNAKNTVYFQMNSLKPVDTAVYYCASRYPWGWAMNYWGQGTQVTVSS | high polyreactivity
11 | QVQLVESGGGLVQAGGSLSLICAASGSIFTRNAMGWYRQAPGKERELVAAISRRGVSTYYADSVKGRFTNSRDNAKNTVYLQMNSLKPEDTAVYYCNKLSSYVVARRTTEYDYWGQGTQVTVSS | high polyreactivity
12 | QVQLVESGGGLVQAGGSLRLSCAASGFTFDGYAMGWYRQAPGKERELVAAISQSGGSTYYADSVKGRVTISRDNAKNTVYLQMNSLKPEDTAVYYCNAYTGYRIRYDYWGQGTQVTVSS | high polyreactivity
13 | QVQLQESGGLEQAGVSLRLSCAACGNIFYDTYICWYRQGKERELVASIDHAGSTNYADSVIGRFTISRDNAKNTSYLQRNSLKPDDTAVYYCNAEYTKTGALLIPYTYYYAEDYWGQGTQVTVSS | low polyreactivity
14 | QVQLVESGGGLVQAGGSLRLSCAASGRTFRGYAMGWYRQAPGKERELVAGIRRGGSTNYADSVKGRFTISRDNSKNTVSLQMNSLKPEDTAVYYCAKTYTVSQPSLRTYYYWGQGTQVTVSS | high polyreactivity
15 | QVQLVESGGGLVQAGGSLRLSCAASGSIFYDKDSGWYRQAPGKERELFAAITSTGGSTYYADSVKGRFTISRDHAKNTVYLQMNSLKPEDTAVYDCNTPTYLYWGFNTYDYWGQGTQFTVSS | low polyreactivity
16 | QVQLVESGGGLVQAGGSLRLSCAASGFTFPDYAMGWYRQAPGKEREMVAAISSDGSTYYADSVKGRFTISRDNAKNTVYLQMNSLKPEDTAVYYCAAYVVWLYGYDYWGQGTLVTVSS | low polyreactivity
17 | QVQLQESGGGMVQAGGSLRLTCAATGYISSCYPMRWYRQAPGKEREFVATIAPGATTYYADSVKGRFTISRDYAKNTVYLQMNSQKPEATAVYVCAAGPENIDFYSYWGQGTQVTVSS | low polyreactivity
18 | QVQLVESGGGLVQAGGSLRLSCAASGSIVVNNGMGWYRQAPGKERELVATISERGGGTYYADSVKGRFTISRDNAKNTVYLQMNSLKPEDTAVYYCAARVPRFYFVPLYYWGQGTQVTVSS | low polyreactivity
19 | QVQLVESGGGLVQAGGSLRLICAASGSTFSDNAMGWYRPAPGKERELVAAISRSGGSTYYADSVKGRFTLSRDNANNTVYLQMNSLKPEDTAFYYGATKSVLTGYDSWGQGTKVTVSS | high polyreactivity
20 | QVQLVESGGGLVQAGGSLRLSCAASGFTFPYYAMGWYRQAPGKERELVAAITYSGDSTYYADSVKGRFTISRDNAKNTVYLQMNSLKPEDTAVYYCNVTPDWAVTDDYWGQGTQVTVSS | low polyreactivity
21 | QVQLVESGGGSVQAGGSLRLSCAASGYIFGVYAMGWYRQAPGKERELVAAISSGGSTNYADSVKGRFTISRDNAKNTVYLQMNSLKPEDTAVYYCNADYIFYYEYDYWGQGTQVTVSS | low polyreactivity

Row | Sequence | polyreactivity (PSR sort gate)
22 | QVQLVESGGRLVQAGGSLRLSCAASVRIFFQNAMGWSRQAPGKERELVAGISGSGGSTYYADSVKGRFTISRDNAKNTVYLQMNSLKPEDTAVYYCAARYGIISSFEYDYWGQGTQVTVSS | high polyreactivity
23 | QVQLVESGGGLVQAGGSLRLSCAASGSTFHNYAMGWYRQAPGKERELVAGISVRGGGTYYADSVKGRFTISRDNAKNTVYLQMNSLKPEDTAVYYCAKRSRYYYRYDYWGQGTQVTVSS | high polyreactivity
24 | QVQLVESGGGLVQAGGSLRLSCSASGSIFPFNAMGWYRQAPGKERELVAAIRWSDGRTYYADSVKGRFTISRDNAKNTVYLQMNSLKPEDTAVYYCAAKSYWGQGTQVTVSS | high polyreactivity
25 | QVQLVESGGGLVQAGGSLRLSCAASGFISSINAMGWYRQAPGKERELVAGIRARGTSTYYADSVKGRFTISRDNAKNTVYLQMNSLKPEDTAVYYCAADFTYQGSSANDYWGQGTQVTVSS | low polyreactivity
26 | QLQLVESGGGLVQAGCSLRLICAASGFTFYRNAMGWYRQAPGKEREFVAAISSSGGGTYYADSVKGRFTISRDNAKNTVYLQMNSLKPDDTAVYYCAAKYPQKTTVNSYGNSFYYWGQGTQVTVSS | high polyreactivity
27 | QVQLVDSGGGLVQAGGSLRLSCAASGRIFGSYVMGWYRQAPGKERELVAAITDGGTTYADSVKGRFTISRDNAKNTVYLQMNSLKPEDTAVYYCAADLYDWPLAWWEYYYWGQGTHVTVSS | low polyreactivity
28 | QVQLVESGGGLVQAGGSLRLRCAASGRIFGRYAMGWYRQAPGKERELVASISRGGSTNYADSVKGRFTISLDNAKNTVYLQMNSLKPEDTAVFYFAKSGGVGGDDRVGSWGQGTQVTVSS | low polyreactivity
29 | QVQLVESGGGLVQAGGSLRLSCAASGRIFYPYSMGWYRQAPGKERELVAAIRRSGVDTYYADSVKGRFTISRDNAKNTVYLQMNSLKPEDTAVYYCAADPYWFFPHYDSWGQGTQVTVSS | low polyreactivity
30 | QVQLVESGGGLVQAGGSLRLSCAASGSIFPGYAMGWDRQAPGKERQLVATITWSGGSTYYADSVKGRFTISRDNAKNTVYLQMNSLKPEDTAVYYCIADSNWYYQWNYYGLYDYWGQGTQVTVSS | low polyreactivity
31 | QVQLVESGGGLDQAGGSLRLSCAASGSNLVSNDMGWYRQAPGKERELVAAMSWSGGSTYYADSVKGRFTISRDNAKNTVYLHMNSLKPEDTAVYYCAAGFGFLFARQELEFDYWGQGTQVTVSS | low polyreactivity
32 | QDQLVESGGGLVQAGGSLRLSCAAYGSTFERYVMGWYRQAPGKDRELVADINSGGSTNYADSVKGRFTISRDNAKNTVYLQMNSLKPEDTAVYYCAKDGWGGWWFPYRVKYGYWGQGSQVTVSS | low polyreactivity
33 | QVQLVESVGGLVQAGGSLRLSCDASGSTFTSYTMGWYRPAPGKERELVAAISRSDGDRTYYADSVKGRFTISRDNAKNTVYLQMNSLKPEDTAVYYCAAEVTPRIVRYYYWGQGTQVTVSS | high polyreactivity
34 | QVQLVESGGGLVQAGGSLRLSCAASGSIFGYYAMGWYRQAPGKERELVAAISWSGGSTYYADSVKGRFTISRDTAKNTVYLQMNSLKPEDTAVYYCAATSRGNDSQKYYYWGQGTQVTVSS | low polyreactivity
35 | QVQLVESGGGLVQAGGSLRLSCAASGSIFTFYAMRWYRQAPGKERELVATINRIGGNRYYADSVKGRFTISRDNAKNTVYLQMNSLKPEDTAGYYCAAKPTYRGYGYGSWGQGTQVNVSS | low polyreactivity
36 | QVQLVESGGGLVQAGGSLRLSCAASGGTFLNYAMGWYRQAPGKERELVAVITNGDSTYYADSVKGRFTISRDNAKNSVYLQMNSLKPEDTAVYYCNADDWGQYNIWYDYWGQGTQVTVSS | low polyreactivity
37 | QVQLVESGGGLVQAGGSLRLSCAASGSTIVVNAMGWSRQAPGKERELVASISWTTGSTYYADSVKGRFTISRDNAKNTVFLQMNSLKPEDTAVYYCAADILPRYSQFDYWGQGTQVTVSS | low polyreactivity
38 | QVQLVESGGGLVQAGGSLRLSCAASGITFAYYARGWYRQAPGKERELVAAITGDGGYTYYADSVKGRFTISRDNAKNTVYLQMNSLKPEDTAVYYCNAELSDYRYDWWDYDYWGQGTQVTVSS | high polyreactivity
39 | QVQLVESGGGLVQEGGSLRLSCAASGFTFVSNAMGWYRQAPGKERELVAAITYSGTRTYYADSVKGRFTISRDNAKTTVYLQMNSLKPEDTAVYYCAARRGYASAYYYWGQGTQVTVSS | high polyreactivity
40 | QVQLVESGGGLVQAGGSLRLSCPASGSIFDYYAMGWYRQPPGKEREMVAAINISGGDTYYADSVKGRFTISRDNAKNTVYLQMNSLKPEDTAVYYCAADWVTWWFSRVGWDYGYWGQGTQVTVSS | low polyreactivity
41 | QVQLVESGGGLVQAGGSLRLSCAASGNTFTWYTMGWYRQAPGKERELVAVITSDGSTYYADSVKGRFTISRDNAKNTVYLQMNRLKPEDTAVYYCNALSADWYPEEDYWGQGTQVTVSS | low polyreactivity
